Reference: patent US20240247301A1, “DIAGNOSTIC ASSAY FOR CLASSIC INBORN GALACTOSEMIA” (Ohio State Innovation Foundation, priority 2022, published 2024)
Several values for one entry are separate records, joined by “and”; a condition that tells them apart may be missing. Equal entries are not always repeated.

Substrate: O=P(O)(O)O[C@H]1O[C@H](CO)[C@H](O)[C@H](O)[C@H]1O
Assay: purified protein, by the assay type
[1] = other: SUMO-tagged YidA as coupling enzyme, pH 8.0

B1: Duarte GalT (galactose-1-phosphate uridylyltransferase, Duarte variant) (Homo sapiens; N314D) (protein)
chain: MSRSGTDPQQRQQASEADAAAATFRANDHQHIRYNPLQDEWVLVSAHRMKRPWQGQVEPQLLKTVPRHDPLNPLCPGAIRANGEVNPQYDSTFLFDNDFPALQPDAPSPGPSDHPLFQAKSARGVCKVMCFHPWSDVTLPLMSVPEIRAVVDAWASVTEELGAQYPWVQIFENKGAMMGCSNPHPHCQVWASSFLPDIAQREERSQQAYKSQHGEPLLMEYSRQELLRKERLVLTSEHWLVLVPFWATWPYQTLLLPRRHVRRLPELTPAERDDLASIMKKLLTKYDNLFETSFPYSMGWHGAPTGSEAGANWDHWQLHAHYYPPLLRSATVRKFMVGYEMLAQAQRDLTPEQAAERLRALPEVHYHLGQKDRETATIA
Km [1]: 890 ± 30 µM | kcat [1]: 14.8 ± 0.867 s⁻¹ | Km (other: mean ± SD of three independent trials, pH 8.0): 660 ± 20 µM and 530 ± 40 µM | Km (other: single trials, ± curve-fit error, pH 8, 37° C., 0.8 mM UDP-glucose, 37.0 °C): 550 ± 90 µM and 480 ± 30 µM | Km (other: single trials, ± curve-fit error, pH 8.0, 37° C., 1 mM UDP-glucose, 37.0 °C): 670 ± 180 µM and 630 ± 140 µM and 670 ± 150 µM
